This note sets out measurements from the DeepSol protein solubility set.

This data set in a line: soluble on expression in E. coli; label from the status in PepcDB or PDB records.
As to “MRRSGNYNPSRWDVNFIQSLLSDYKEDKHVIRASELVTLVKMELEKETDQIRQLELIDDLQRMGLSDHFQNEFKEILSSIYLDHHYYKNPFPKEERDLYSTSLAFRLLREHGFQVAQEVFDSFKNEEGEFKESLSDDTRGLLQLYEASFLLTEGETTLESAREFATKFLEEKVNEGGVDGDLLTRIAYSLDIPLHWRIKRPNAPVWIEWYRKRPDMNPVVLELAILDLNIVQAQFQEELKESFRWWRNTGFVEKLPFARDRLVECYFWNTGIIEPRQHASARIMMGKVNALITVIDDIYDVYGTLEELEQFTDLIRRWDINSIDQLPDYMQLCFLALNNFVDDTSYDVMKEKGVNVIPYLRQSWVDLADKYMVEARWFYGGHKPSLEEYLENSWQSISGPCMLTHIFFRVTDSFTKETVDSLYKYHDLVRWSSFVLRLADDLGTSVEEVSRGDVPKSLQCYMSDYNASEAEARKHVKWLIAEVWKKMNAERVSKDSPFGKDFIGCAVDLGRMAQLMYHNGDGHGTQHPIIHQQMTRTLFEPFA”, the “soluble on expression in E. coli” value was “soluble”.
For “MIVLGIESSCDETGVGIIDLADDGTMTIVGDAVASSMEQHARFGGVVPEIASRAHLESMIPVMKEALAQAGVERPDAVAATVGPGLAGALLVGASAAKAYAAAWGVPFYGVNHLGGHVAVANLEGEELPHSIALLVSGGHTQILEVQAVGKPMRELGSTLDDAAGEAYDKVARLLGLGYPGGPVVDKLAARGNRKAIRFPRGLSRADDLRGEHRYDFSFSGVKTSVARYVESAEREGRVISVEDVCASFQEAVVDVLTSKAIMACKDTGASVLLLGGGVAANSRLRELAAARCQSASIELRVPSFKLCTDNGVMIAAVASQLIHEGAQPSGLSVGTDTSLEVEIPLVHSL” the value was “not soluble”; for “MAGMNTENENRVEALEVRLAFQDELLDALNATVARQQKEIDLLQQQIRLLYQQFRNAQPDDAPGGSLRDDIPPHY”, “not soluble”; for “MGSDKIHHHHHHMDDLRDSLDRIKSICSEIVVQFESSDVAESLKALQKAVNEAAKSWSGSWLGYHSRVYYNQLQPVPPGARFSQEWGLSDGLSNETRGDWCEYDFDSIYNILKSKAINFSLEQLNELANYANEEIPDLREELISIIFSCLASGEDTYLDRLKQEAELCKTSSVGEFVDYLRGGGQFFSRDRVAVLSGSQTPPHIYLQAQLLAVQSPSTVAKSLKKIANRLALHLTNKSRTYMYSSQPGTHVFIGHGHSPLWRDLKDFISERLKLPWDEFNRLPIAGINNTVRLSQMLDSAAIAFLIMTGEDEQSDLKLRARMNVIHEAGLFQGRLGFRRAILLLEEGCENFSNVDGIGYINFPRGNIKACFEDVRMVLEREGLV”, “not soluble”.
As to “AHHHHHHGSGLFDKLKKAEVQKKVPSSLKSRIKEEPSEVELVPVEEEVLAKELVKPKVVYIKKIVISTHADLKRVSDELKSGNIVIVELTPLEQKPELLKKIAEQLMTTASIIGGDYAKICGSPLKVILTPPEIKIAKE”, the “soluble on expression in E. coli” value is “not soluble”.
In the case of “GPVDMTERLKVMTIFGTRPEAIKMAPLVLELQKHPEKIESIVTVTAQHRQMLDQVLSIFGITPDFDLNIMKDRQTLIDITTRGLEGLDKVMKEAKPDIVLVHGDTTTTFIASLAAFYNQIPVGHVEAGLRTWDKYSPYPEEMNRQLTGVMADLHFSPTAKSATNLQKENKDESRIFITGNTAIDALKTTVKETYSHPVLEKLGNNRLVLMTAHRRENLGEPMRNMFRAIKRLVDKHEDVQVVYPVHMNPVVRETANDILGDYGRIHLIEPLDVIDFHNVAARSYLMLTDSGGVQEEAPSLGVPVLVLRDTTERPEGIEAGTLKLAGTDEETIFSLADELLSDKEAHDKMSKASNPYGDGRASERIVEAILKHFNK”, the “soluble on expression in E. coli” value is reported as “soluble”.
To “MMVEVRFFGPIKEENFFIKANDLKELRAILQEKEGLKEWLGVCAIALNDHLIDNLNTPLKDGDVISLLPPVCGG” belongs “not soluble”; to “MGSDKIHHHHHHMYAAHPIKPLKAPKLKTQFLRRVFVGASIRRWNDQACPLEFVELDKQAHKAMIAYLLAKDLKDRGNDLDLDLLIKFFCFEFLERLVLTDIKPPIFYALQQTHSQELASYVVQSLQDEISMYFSLEELKEYLSHRPQILETQILESAHFYASKWEFDIIYHFNPNMYGVKEIKDKIDKQLHNNEHLFEGLFGEKEDLKKLVSMFGQLRFQKRWSQTPRVPQTSVLGHTLCVALMGYLLSFDLKACKSMRINHFLGGLFHDLPEILTRDIITPIKQSVAGLDHCIKEIEKKEMQNKVYSFVSLGVQEDLKYFTENEFKNRYKDKSNKIIFTKDAEELFTLYNSDEYLGVCGELLKVCDHLSAFLEAQISLSHGISSNDLIKGAQNLLELRSQTELLDLDLGKLFRDFK”, “not soluble”; to “HGSSHHHHHHSSENLYFQGHMWNSRKVGVLGGGQLGRMLVESANRLNIQVNVLDADNSPAKQISAHDGHVTGSFKEREAVRQLAKTCDVVTAEIEHVDTYALEEVASEVKIEPSWQAIRTIQNKFNQKEHLRKYGIPMAEHRELVENTPAELAKVGEQLGYPLMLKSKTMAYDGRGNFRVNSQDDIPEALEALKDRPLYAEKWAYFKMELAVIVVKTKDEVLSYPTVETVQEDSICKLVYAPARNVSDAINQKAQELARKAVAAFDGKGVFGVEMFLLEDDSIMLCEIASRIHNSGHYTIEGCALSQFDAHLRAILDLPIPAQSLEIRQPSIMLNIIGGAAPDTHLQAAECALSIPNASIHLYSKGAAKPGRKMGHITVTAPTMHEAETHIQPLIDVVDRIRA”, “soluble”.
To “MIPKQLSEAEAAVVLNLTVSQVRRLRHKGKLGYTPGRPPRIGEDDIEAYLRAVKRRPTLPPPTEPPTPVIEKDSYADIQRRVREKRLKLRLRSSQRSLG” belongs “not soluble”; to “MRDIDGGTMGYRVGVDIGGSFTDFAVFDEDNGEIKSLKVFSRPDQPGEEVIAGVRMLGERYGIQPEQITYFTHGTTVGINTVIQRKGLKLALFTTENFSDVLELARLKTPDMYHLLSRRPAPLVKRSMVFGIAERMGPDGTVRAPLDEASVERAVRQALDAGAEGIVVSLLHAYRNPAHELRVREIAEALA”, “not soluble”; to “MGSDKIHHHHHHLRLQLSTWPEVADYLSTRRGVIIPIGSTEQHGPSGLIGTDAITAEVVSWRAGEVLDTLVAPTIAVGMAHHHMAFPGSMTLRPSTLIAVIRDTILALSSHGFTRFLFVNGHGGNIPSIQSAFYEAYEEMRVHHGDGAPDIACQLCSWFSSPAVEALAAEAFGDAEGSHATPSEVSVTWHAYPDQQRTPVLDPPVAPQGRFTDSRDFRRAFPDGRIGSNPALATPELGGRFVEVAVDYIATTYGDFLKG”, “not soluble”.
To “MEHTKKFKSLNLHGFDRSTEDYGKRPFVLTAKLLEDQKKAIYGCAFNQYAGIDEEQAVATVGGSFLHMYSVPIDINNIELQWSCNFPTDKSSKVEREESLFTVTWCYDTYEAENDRNPFKVVTGGTLGHIYVIDYVSRKLSNRLRSVGWEINDIRTCPANSNLIVCASSDQSIRIHHIRNEACLIVIGGLECHAGTILSVDWSTDGDFILSCGFDHQLMEWDLSVKQVKEHLERACKALHQDKINVLTQSQDIPYVSKGTMRKSAVSRNIPDKEEDQLLELHRELIPRPSCLLPIYTPSSVSTDMHSDYVDCIRFLIGTNYALSKGCGNEKAIHFWRFGPPKGEVENRIHGNVLRPKSCTTKFRTMNVPSGSAWFIKFAVDPRRRWLVCGGAGGSVMFFDLRNNEETNPTHTCSVGSRTVRQASFSTCGRFLVLVTDEGFVCRFDRVSASVDAKDLFLMSSPTSSKDYSSPKHSFMLTVDSNLQSDKKKTFLNVQSSSSAGSTKHCQIPMSKDEYFETRGKLDSVDVIDQFRQRQQ” belongs “not soluble”; to “MGSDKIHHHHHHMPDFSYAKITKLVVHFAGNKAREEGTEVSANVLQDIGSEMNQTLASIFLEPFTKDDYYQFSHETDLDFNEVRTFAANMFGAEEEFLDESKKILEHLYSETTHPNIKSGDVWIFFIEGCVVDGDFTNGIGIFKVENKEVFLKNDFNGSEFQIGYDKGITGTDLDKGCLIFNVDHDSGNKVLILDRLNRGDSVYWKDKFLSIDKITDEKFYTEGFVEVCTDYIKQREESLLDKSNFVKATSEYLAGEETLNIAEFARTTIEKPEEITEFNTMVDTFERENNVRFPETFQLDEEKREKLSKKIRKTIKLGKNISVVVKDLEQLEETDFVQGYDEEKGKNYMIVYYD”, “not soluble”.
For “MKKYQQLAEQLREQIASGIWQPGDRLPSLRDQVALSGMSFMTVSHAYQLLESQGYIIARPQSGYYVAPQAIKMPKAPVIPVTRDEAVDINTYIFDMLQASRDPSVVPFASAFPDPRLFPLQQLNRSLAQVSKTATAMSVIENLPPGNAELRQAIARRYALQGITISPDEIVITAGALEALNLSLQAVTEPGDWVIVENPCFYGALQALERLRLKALSVATDVKEGIDLQALELALQEYPVKACWLMTNSQNPLGFTLTPQKKAQLVALLNQYNVTLIEDDVYSELYFGREKPLPAKAWDRHDGVLHCSSFSKCLVPGFRIGWVAAGKHARKIQRLQLMSTLSTSSPMQLALVDYLSTRRYDAHLRRLRRQLAERKQRAWQALLRYLPAEVKIHHNDSGYFLWLELPEPLDAGELSLAALTHHISIAPGKMFSTGENWSRFFRFNTAWQWGEREEQAVKQLGKLIQERL”, the “soluble on expression in E. coli” value was “not soluble”.
For “NTITVSELLELIKKEDVIIVDTRSPREFKEETLPGAINIPLFLDDEHALIGKTYKQESREKAIEIATDIVEKSLKRILNEAKKLDRDKLIVVFCARGGMRSQTMALILQLLGFKVKRLIGGFKAFKHAVDK” the value was “not soluble”.
For “KHDGIPAECTTIYNRGEHTSGMYAIRPSNSQVFHVYCDVISGSPWTLIQHRIDGSQNFNETWENYKYGFGRLDGEFWLGLEKIYSIVKQSNYVLRIELEDWKDNKHYIEYSFYLGNHETNYTLHLVAITGNVPNAIPENKDLVFSTWDHKAKGHFNCPEGYSGGWWWHDECGENNLNGKYNKPRAKSKPERRRGLSWKSQNGRLYSIKSTKMLIHPTDSESFE” the value was “soluble”; for “MTLLRGTVRTKTSCQLVSAIGTQNCTVWEGYEVSEITPGNSNTSYITWKRSVPNTNLSQPITSCPASTVKFPTCKVGWKLFPRYNTYWCLTLGINRRERDGYLLQFDQSFSYVACRWDGSEFIDGRISGLESNEERAYATDRAYQIMKQNMRETLFVFPSNVRLGWGVWVDGVKDVAGQVKYSDTTLNLKLGYKWDIGQPNWVSRKQACVMLMVPVNQSSRSNGSLRTAEYLRSI”, “not soluble”.
Consider “PPGPCLPPRLQGRPKAKEIQLRWGPPLVDGGSPISCYSVEMSPIEKDEPREVYQGSEVECTVSSLLPGKTYSFRLRAANKMGFGPFSEKCDITTAPG”, for which the “soluble on expression in E. coli” value was “soluble”.
Take “MRTLLDLDPKGKRVLVRVDYNVPVQDGKVQDETRILESLPTLRHLLAGGASLVLLSHLGRPKGPDPKYSLAPVGEALRAHLPEARFAPFPPGSEEARREAEALRPGEVLLLENVRFEPGEEKNDPELSARYARLGEAFVLDAFGSAHRAHASVVGVARLLPAYAGFLMEKEVRALSRLLKDPERPYAVVLGGAKVSDKIGVIESLLPRIDRLLIGGAMAFTFLKALGGEVGRSLVEEDRLDLAKDLLGRAEALGVRVYLPEDVVAAERIEAGVETRVFPARAIPVPYMGLDIGPKTREAFARALEGARTVFWNGPMGVFEVPPFDEGTLAVGQAIAALEGAFTVVGGGDSVAAVNRLGLKERFGHVSTGGGASLEFLEKGTLPGLEVLEG”: the “soluble on expression in E. coli” value is “soluble”.
For “MRTHDDTWDIKTSVGATAVMVAAARAVETDRPDPLIRDPYARLLVTNAGAGAIWEAMLDPTLVAKAAAIDAETAAIVAYLRSYQAVRTNFFDTYFASAVAAGIRQVVILASGLDSRAYRLDWPAGTIVYEIDQPKVLSYKSTTLAENGVTPSAGRREVPADLRQDWPAALRDAGFDPTARTAWLAEGLLMYLPAEAQDRLFTQVGAVSVAGSRIAAETAPVHGEERRAEMRARFKKVADVLGIEQTIDVQELVYHDQDRASVADWLTDHGWRARSQRAPDEMRRVGRWVEGVPMADDPTAFAEFVTAERL” the value was “soluble”.
